The series can be described thus: self-splicing fitness, log relative to wild type (ln ratio); higher = more splicing; Tetrahymena group I intron in knt gene, E. coli kanamycin selection, DiMSum; sequences stand for … in CUCUCU…GGAGGGAAAAGUUAUCAGGCAUGCACCUGGUAGCUAGUCUUUAAACCAAUAGAUUGCAUCGGUUUAAAAGGCAAGACCGUCAAAUUGCGGGAAAGGGGUCAACAGCCGUUCAGUACCAAGUCUCAGGGGAAACUUUGAGAUGGCCUUGCAAAGGGUAUGGUAAUAAGCUGACGGACAUGGUCCUAACCACGCAGCCAAGUCCUAAGUCAACAGAUCUUCUGUUGAUAUGGAUGCAGUUCACAGACUAAAUGUCGGUCGGGGAAGAUGUAUUCUUCUCAUAAGAUAUAGUCGGACCUCUCCUUAAUGGGAGCUAGCGGAUGAAGUGAUGCAACACUGGAGCCGCUGGGAACUAAUUUGUAUGCGAAAGUAUAUUGAUUAGUUUUGGAGUACUCGUGGUCG
The gist of the method:
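Six replicate transformations of E. coli BL21(DE3) with a pET-22b(+) library were grown overnight at 37°C or 30°C. The library randomised all eight P1ex-region intron nucleotides, the intron lying in the knt kanamycin-resistance gene, and plates were LB agar with or without 25 μg/mL kanamycin plus 100 μg/mL carbenicillin, 50 μM IPTG and 0.2% rhamnose. Pooled colonies were amplicon-sequenced on an Illumina HiSeq 2500, and fitness is the DiMSum error-weighted combination of wild-type-normalised replicate fold changes, kanamycin versus none.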

Here are results for 75 sequences from the supplement of paper PMC7877785.

± gives the uncertainty stated by the source.

In the case of GCCAAGCAAUAUUACGAAGU, the “self-splicing fitness (ln)” value is -1.12 ± 0.049 (30 °C) and -0.235 ± 0.064 (37 °C).
With GGGAAGCAAUAUUACGUAUC, the “self-splicing fitness (ln)” value was -1.43 ± 0.074 (30 °C) and -1.03 ± 0.11 (37 °C).
For AACAAGCAAUAUUACGCUUC, in that order: -4.57 ± 0.3 and -2.75 ± 0.26.
In the case of CCGGAGCAAUAUUACGUCGA, the “self-splicing fitness (ln)” value is -3.12 ± 0.2 (30 °C) and -1.89 ± 0.19 (37 °C).
Take AAUUAGCAAUAUUACGUUAC: the “self-splicing fitness (ln)” value (30 °C) was -3.18 ± 0.15 and the “self-splicing fitness (ln)” value (37 °C) was -1.74 ± 0.17.
Regarding CUUCAGCAAUAUUACGUAUG, the “self-splicing fitness (ln)” value is, setting by setting: (30 °C) -0.871 ± 0.066; (37 °C) -0.276 ± 0.074.
In the same order, the values of CAGUAGCAAUAUUACGAUCU are -1.52 ± 0.15 and -1.15 ± 0.19.
For AAUUAGCAAUAUUACGAAUG, in that order: -1.55 ± 0.12 and 0.187 ± 0.14.
In the same order, the values of CGCAAGCAAUAUUACGCCUA are -0.46 ± 0.094 and -0.653 ± 0.1.
As for UAUGAGCAAUAUUACGCGCU, the “self-splicing fitness (ln)” value is, setting by setting: (30 °C) -3.68 ± 0.31; (37 °C) -2.64 ± 0.28.
Turning to CUUCAGCAAUAUUACGAAGG, the “self-splicing fitness (ln)” value (30 °C) was -2.06 ± 0.13 and the “self-splicing fitness (ln)” value (37 °C) was -1.08 ± 0.18.
For AACCAGCAAUAUUACGAGGA, in that order: -2.25 ± 0.13 and -1.51 ± 0.11.
For GGGCAGCAAUAUUACGCCAC, in that order: -3.34 ± 0.37 and -1.22 ± 0.38.
Turning to GCGUAGCAAUAUUACGGUAU, the “self-splicing fitness (ln)” value (30 °C) is -2.03 ± 0.077 and the “self-splicing fitness (ln)” value (37 °C) was -0.828 ± 0.1.
With CCUAAGCAAUAUUACGCUAG, the “self-splicing fitness (ln)” value reads like this: (30 °C) -3.75 ± 0.47; (37 °C) -1.64 ± 0.3.
For GUCCAGCAAUAUUACGAAUA, the “self-splicing fitness (ln)” value was 0.0949 ± 0.13 (30 °C) and -0.595 ± 0.15 (37 °C).
For AGUAAGCAAUAUUACGCAUU, in that order: -2.48 ± 0.15 and -2.26 ± 0.18.
As for GCUUAGCAAUAUUACGUGUG, the “self-splicing fitness (ln)” value was -1.91 ± 0.054 (30 °C) and -1.14 ± 0.066 (37 °C).
For GUGGAGCAAUAUUACGUUGU, in that order: -2.93 ± 0.12 and -2.53 ± 0.21.
In the same order, the values of GAAAAGCAAUAUUACGAACU are -0.519 ± 0.1 and 0.532 ± 0.13.
For CUCUAGCAAUAUUACGCCUC, the “self-splicing fitness (ln)” value (30 °C) was -1.49 ± 0.3.
As to CGUCAGCAAUAUUACGUAGA, the “self-splicing fitness (ln)” value is, setting by setting: (30 °C) -1.3 ± 0.069; (37 °C) -0.865 ± 0.1.
Consider CACCAGCAAUAUUACGUACG, for which the “self-splicing fitness (ln)” value reads like this: (30 °C) 0.0448 ± 0.04; (37 °C) 0.848 ± 0.062.
Consider UAGUAGCAAUAUUACGUGAC, for which the “self-splicing fitness (ln)” value reads like this: (30 °C) -2.58 ± 0.15; (37 °C) -2.47 ± 0.18.
With GAUAAGCAAUAUUACGAAGA, the “self-splicing fitness (ln)” value by setting is: (30 °C) -3.41 ± 0.24; (37 °C) -1.7 ± 0.22.
For UCUCAGCAAUAUUACGCGGU, in that order: -2.89 ± 0.26 and -2.3 ± 0.28.
With AAAGAGCAAUAUUACGCUUU, the “self-splicing fitness (ln)” value by setting is: (30 °C) -3.18 ± 0.23; (37 °C) -3.68 ± 0.36.
For CACGAGCAAUAUUACGACUU, in that order: -4.4 ± 0.34 and -0.766 ± 0.13.
On to CUGGAGCAAUAUUACGUCGU, for which the “self-splicing fitness (ln)” value runs as follows: (30 °C) -3.88 ± 0.23; (37 °C) -2.39 ± 0.22.
Turning to CUAAAGCAAUAUUACGACUU, the “self-splicing fitness (ln)” value was -3.45 ± 0.2 (30 °C) and -3.47 ± 0.39 (37 °C).
With AGACAGCAAUAUUACGGUAU, the “self-splicing fitness (ln)” value reads like this: (30 °C) -2.55 ± 0.1; (37 °C) -0.734 ± 0.091.
For CGCUAGCAAUAUUACGUGGU, in that order: -3.55 ± 0.27 and -2.61 ± 0.26.
GCAGAGCAAUAUUACGUGUA: the “self-splicing fitness (ln)” value is -3.61 ± 0.35 (30 °C) and -1.17 ± 0.16 (37 °C).
For AGAAAGCAAUAUUACGGGGU, in that order: -3.8 ± 0.22 and -2.34 ± 0.23.
For CGCAAGCAAUAUUACGAUUU, in that order: -2.45 ± 0.16 and -2.33 ± 0.18.
For UUAGAGCAAUAUUACGAGGA, in that order: -2.99 ± 0.34 and -0.578 ± 0.32.
Regarding GGCGAGCAAUAUUACGCGCA, the “self-splicing fitness (ln)” value is -0.241 ± 0.17 (30 °C) and 0.253 ± 0.22 (37 °C).
Regarding CUUGAGCAAUAUUACGCAAG, the “self-splicing fitness (ln)” value (30 °C) was -2.37 ± 0.42.
In the case of GAUGAGCAAUAUUACGUGGA, the “self-splicing fitness (ln)” value is -2.47 ± 0.21 (30 °C) and -2.5 ± 0.22 (37 °C).
Regarding CACCAGCAAUAUUACGGGUU, the “self-splicing fitness (ln)” value is -1.82 ± 0.056 (30 °C) and -1.68 ± 0.081 (37 °C).
For AGAUAGCAAUAUUACGUACA, in that order: -1.26 ± 0.055 and -0.0902 ± 0.08.
CGUUAGCAAUAUUACGGCGG: the “self-splicing fitness (ln)” value by setting is: (30 °C) -0.628 ± 0.1; (37 °C) -0.396 ± 0.12.
AACGAGCAAUAUUACGCGAG: the “self-splicing fitness (ln)” value is -2.75 ± 0.24 (30 °C) and -2.61 ± 0.25 (37 °C).
In the same order, the values of AAUAAGCAAUAUUACGCCGC are -2.65 ± 0.46 and -1.49 ± 0.28.
In the same order, the values of GACCAGCAAUAUUACGCCUC are -1.17 ± 0.097 and -0.623 ± 0.11.
As to GUGCAGCAAUAUUACGGAUG, the “self-splicing fitness (ln)” value was -2.72 ± 0.29 (30 °C) and -1.74 ± 0.25 (37 °C).
In the same order, the values of CUUGAGCAAUAUUACGGUCU are -3.17 ± 0.29 and -3.61 ± 0.37.
In the same order, the values of UGCAAGCAAUAUUACGUGGG are -3.73 ± 0.17 and -2.93 ± 0.19.
For AGAGAGCAAUAUUACGUACC, in that order: -1.69 ± 0.28 and -0.0438 ± 0.38.
Turning to AGCUAGCAAUAUUACGCAGG, the “self-splicing fitness (ln)” value was -3.49 ± 0.22 (30 °C) and -3.93 ± 0.33 (37 °C).
On to UACGAGCAAUAUUACGGUAA, for which the “self-splicing fitness (ln)” value was -1.82 ± 0.37 (30 °C) and -0.747 ± 0.28 (37 °C).
For GAGCAGCAAUAUUACGGAAA, in that order: -3.08 ± 0.24 and -2.84 ± 0.21.
For AUCGAGCAAUAUUACGGUUU, in that order: -2.08 ± 0.091 and -1.71 ± 0.099.
For CCUAAGCAAUAUUACGCGCC, in that order: -2.47 ± 0.26 and -1.63 ± 0.33.
As to CGUUAGCAAUAUUACGAAUG, the “self-splicing fitness (ln)” value (30 °C) was -1.92 ± 0.15 and the “self-splicing fitness (ln)” value (37 °C) is 0.491 ± 0.12.
As for UAGAAGCAAUAUUACGGUCA, the “self-splicing fitness (ln)” value runs as follows: (30 °C) -0.346 ± 0.095; (37 °C) -0.338 ± 0.11.
In the same order, the values of CGGUAGCAAUAUUACGGAGA are -3.87 ± 0.32 and -2.72 ± 0.21.
In the same order, the values of CUCCAGCAAUAUUACGCAUC are -4.12 ± 0.42 and -2.4 ± 0.37.
Turning to UCGAAGCAAUAUUACGUGCA, the “self-splicing fitness (ln)” value (30 °C) is -0.485 ± 0.096 and the “self-splicing fitness (ln)” value (37 °C) is -0.214 ± 0.095.
For UUAUAGCAAUAUUACGCAGA, in that order: -2.06 ± 0.14 and -1.25 ± 0.099.
As to CUUAAGCAAUAUUACGAUUU, the “self-splicing fitness (ln)” value (30 °C) is -4.53 ± 0.42 and the “self-splicing fitness (ln)” value (37 °C) was -2.7 ± 0.24.
In the same order, the values of CGCUAGCAAUAUUACGUAAA are -2.46 ± 0.2 and -1.33 ± 0.31.
For the sequence AUUAAGCAAUAUUACGUAGA, the “self-splicing fitness (ln)” value reads like this: (30 °C) -2.39 ± 0.15; (37 °C) -0.947 ± 0.15.
In the same order, the values of AACUAGCAAUAUUACGAUAC are -3.15 ± 0.23 and -1.24 ± 0.34.
For UAUAAGCAAUAUUACGAGAU, in that order: -4.28 ± 0.31 and -2.54 ± 0.28.
For UAGGAGCAAUAUUACGUUCG, in that order: -0.918 ± 0.2 and -0.576 ± 0.19.
As to CCAAAGCAAUAUUACGGGCA, the “self-splicing fitness (ln)” value was -3.47 ± 0.19 (30 °C) and -2.86 ± 0.2 (37 °C).
For UCCGAGCAAUAUUACGGCCA, in that order: -0.297 ± 0.1 and -0.233 ± 0.12.
For CCAAAGCAAUAUUACGCUCU, in that order: -3.95 ± 0.27 and -2.95 ± 0.23.
UUUUAGCAAUAUUACGGAGC: the “self-splicing fitness (ln)” value by setting is: (30 °C) -2.24 ± 0.38; (37 °C) -2.37 ± 0.49.
Turning to AGGCAGCAAUAUUACGUUAG, the “self-splicing fitness (ln)” value (30 °C) is -3.85 ± 0.26 and the “self-splicing fitness (ln)” value (37 °C) is -2.14 ± 0.16.
For AAUCAGCAAUAUUACGUGUA, the “self-splicing fitness (ln)” value by setting is: (30 °C) -0.538 ± 0.058; (37 °C) 0.135 ± 0.068.
In the same order, the values of GAAGAGCAAUAUUACGUUCU are -3.88 ± 0.29 and -2.8 ± 0.27.
As to GGAAAGCAAUAUUACGCCGC, the “self-splicing fitness (ln)” value runs as follows: (30 °C) -2.48 ± 0.41; (37 °C) -1.89 ± 0.49.
Regarding UUAAAGCAAUAUUACGACCC, the “self-splicing fitness (ln)” value is, setting by setting: (30 °C) -0.686 ± 0.28; (37 °C) -0.355 ± 0.29.
